From paper PMC11241748, “DNA Repair Protein XRCC1 Stimulates Activity of DNA Polymerase λ under Conditions of Microphase Separation” come the findings set out here.

This data set deals with XRCC1 (UniProt P18887 1-633). Put plainly: DLS (DNA-induced higher-order assembly); elevated DNA concentration; Rh ~135 to ~740 nm vs 6.7 nm without DNA; DLS and microscopy buffer not given in the material; activity assay: 50 mM Tris-HCl pH 7.5, 5 mM Mg2+, 0.5 mM DTT, 0.25 mg/mL BSA, 37 °C. Kd values in Table 1 a. The following applies: protein: recombinant; tags: His-tag; chain copies: 2; label: 5'-32P on upstream strand as printed; 1-nt gap (template G) between strands 1 and 2, both paired to strand 3; blunt outer ends.

B1: gap-DNA (dsDNA)
DNA 1: GGCGATTAAGTTGGG
DNA 2: AACGTCAGGGTCTTCC
DNA 3: GGAAGACCCTGACGTTGCCCAACTTAATCGCC
modifications: 5'-phosphate on downstream strand (5' margin of gap)
Take B1: the binding result is reported as “binds”.
